The text below walks through data of publication PMC6625852.

For assay [1], the target named is human factor VII N360Q mutant, C-terminal V5 tag (human). The assay can be described thus: co-IP.
For assay [2], the target named is human factor VII wild-type, C-terminal V5 tag (human). Briefly: co-IP.

Consider “binding immunoglobulin protein (BiP) (from UniProt P11021 19-654) (natural protein)”, for which, in assay [1], the level co-precipitated, percent of that with WT FVII was found to be 230%.

B1: calnexin (natural protein)
chain: HDGHDDDVIDIEDDLDDVIEEVEDSKPDTTAPPSSPKVTYKAPVPTGEVYFADSFDRGTLSGWILSKAKKDDTDDEIAKYDGKWEVEEMKESKLPGDKGLVLMSRAKHHAISAKLNKPFLFDTKPLIVQYEVNFQNGIECGGAYVKLLSKTPELNLDQFHDKTPYTIMFGPDKCGEDYKLHFIFRHKNPKTGIYEEKHAKRPDADLKTYFTDKKTHLYTLILNPDNSFEILVDQSVVNSGNLLNDMTPPVNPSREIEDPEDRKPEDWDERPKIPDPEAVKPDDWDEDAPAKIPDEEATKPEGWLDDEPEYVPDPDAEKPEDWDEDMDGEWEAPQIANPRCESAPGCGVWQRPVIDNPNYKGKWKPPMIDNPSYQGIWKPRKIPNPDFFEDLEPFRMTPFSAIGLELWSMTSDIFFDNFIICADRRIVDDWANDGWGLKKAADGAAEPGVVGQMIEAAEERPWLWVVYILTVALPVFLVILFCCSGKKQTSGMEYKKTDAPQPDVKEEEEEKEEEKDKGDEEEEGEEKLEEKQKSDAEEDGGTVSQEEEDRKPKAEEDEILNRSPRNRKPRRE
In turn, B1 gave a level co-precipitated, percent of that with WT FVII in assay [1] of 124%. This molecule also had a level co-precipitated in DNJ-treated cells, percent of WT in untreated cells in assay [2] of 129%.
